# B1: MBP-InvF (InvF fused to the maltose-binding protein) (natural protein)
# chain: MSFSESRHNENCLIQEGALLFCEQAVVAPVSGDLVFRPLKIEVLSKLLAFIDGAGLVDTTYAESDKWVLLSPEFRAIWQDRKRCEYWFLQQIITPSPAFNKVLALLRKSESYWLVGYLLAQSTSGNTMRMLGEDYGVSYTHFRRLCSRALGGKAKSELRNWRMAQSLLNSVEGHENITQLAVNHGYSSPSHFSSEIKELIGVSPRKLSNIIQLADK
# notes: also called Transcriptional regulator InvF
# Biological target: T1, His6-RpoA (purified) (UniProt P0A7Z7 1-329)
# T1 construct: also called RNA polymerase alpha subunit
# Experiment: pull-down
# Settings: both partners purified
# T1 sequence (P0A7Z7 whole entry): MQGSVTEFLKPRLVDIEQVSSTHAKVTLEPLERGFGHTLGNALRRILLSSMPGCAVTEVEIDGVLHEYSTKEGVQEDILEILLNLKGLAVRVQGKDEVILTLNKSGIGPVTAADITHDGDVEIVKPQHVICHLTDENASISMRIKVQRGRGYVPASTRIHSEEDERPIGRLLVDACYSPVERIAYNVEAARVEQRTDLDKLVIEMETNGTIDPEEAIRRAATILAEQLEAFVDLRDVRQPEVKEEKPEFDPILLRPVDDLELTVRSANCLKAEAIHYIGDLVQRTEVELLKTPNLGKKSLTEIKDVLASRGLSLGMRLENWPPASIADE
binder,measurement,value
B1,binding result,binds
